Changes are numbered by the printed parent chain.
Legend:
Experiment in all cases: holdup assay
Set-up in all cases: key: below the threshold = too weak to quantify, mostly under pKd 3.1 to 4
Conditions in all cases: plain residues with an end cap or a label only (N-terminal biotin on a linker: ado-ado)
TJP1_2, Q07157 = biological target: TJP1_2, Q07157
SNTA1, Q13424 = biological target: T1, SNTA1, Q13424
T1 sequence (Q13424 82-180, limits assumed, looked up): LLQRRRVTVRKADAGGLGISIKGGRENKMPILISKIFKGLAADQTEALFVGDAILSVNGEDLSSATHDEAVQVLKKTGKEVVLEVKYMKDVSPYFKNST

SNTG1, Q9NSN8 = biological target: T2, SNTG1, Q9NSN8
T2 sequence (Q9NSN8 52-150, limits assumed, looked up): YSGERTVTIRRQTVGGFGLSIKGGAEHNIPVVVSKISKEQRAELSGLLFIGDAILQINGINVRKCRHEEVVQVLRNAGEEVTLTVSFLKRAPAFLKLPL

DLG3_2, Q92796 = biological target: T3, DLG3_2, Q92796
T3 sequence (Q92796 221-321, limits assumed, looked up): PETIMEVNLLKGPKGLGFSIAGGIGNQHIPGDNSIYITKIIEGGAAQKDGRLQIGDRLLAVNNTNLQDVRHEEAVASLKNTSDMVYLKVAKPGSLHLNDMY

FRMPD4, Q14CM0 = biological target: FRMPD4, Q14CM0
Chain of FRMPD4, Q14CM0 (Q14CM0 67-160): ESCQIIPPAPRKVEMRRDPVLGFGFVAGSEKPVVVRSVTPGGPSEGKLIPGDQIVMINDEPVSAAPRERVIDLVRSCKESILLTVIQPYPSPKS

APBA2_1, Q99767 = biological target: T4, APBA2_1, Q99767
T4 sequence (Q99767 563-664, limits assumed, looked up): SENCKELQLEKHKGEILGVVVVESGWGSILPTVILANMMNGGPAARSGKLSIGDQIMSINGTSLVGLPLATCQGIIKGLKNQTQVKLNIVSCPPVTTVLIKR

SNTG2, Q9NY99 = biological target: T5, SNTG2, Q9NY99
T5 sequence (Q9NY99 68-166, limits assumed, looked up): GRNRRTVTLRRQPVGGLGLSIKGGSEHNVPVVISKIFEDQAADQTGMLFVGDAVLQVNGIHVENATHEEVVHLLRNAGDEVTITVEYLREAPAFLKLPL

GRID2IP_2, A4D2P6 = biological target: GRID2IP_2, A4D2P6
Chain of GRID2IP_2, A4D2P6 (A4D2P6 272-370): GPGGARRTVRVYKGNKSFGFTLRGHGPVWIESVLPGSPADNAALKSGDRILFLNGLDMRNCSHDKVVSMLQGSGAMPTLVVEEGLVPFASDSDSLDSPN

GORASP2, Q9H8Y8 = biological target: GORASP2, Q9H8Y8
LIN7B, Q9HAP6 = biological target: T6, LIN7B, Q9HAP6
T6 sequence (Q9HAP6 88-185, limits assumed, looked up): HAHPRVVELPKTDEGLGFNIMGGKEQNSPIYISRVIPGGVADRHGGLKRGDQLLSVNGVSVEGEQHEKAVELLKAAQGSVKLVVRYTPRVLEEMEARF

Inadl_1, Q8NI35 = biological target: Inadl_1, Q8NI35
Chain of Inadl_1, Q8NI35 (Q8NI35 113-229): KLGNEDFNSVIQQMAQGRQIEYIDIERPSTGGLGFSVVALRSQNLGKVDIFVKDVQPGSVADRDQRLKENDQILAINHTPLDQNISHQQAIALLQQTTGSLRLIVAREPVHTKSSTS

PICK1, Q9NRD5 = biological target: PICK1, Q9NRD5
Chain of PICK1, Q9NRD5 (Q9NRD5 17-115): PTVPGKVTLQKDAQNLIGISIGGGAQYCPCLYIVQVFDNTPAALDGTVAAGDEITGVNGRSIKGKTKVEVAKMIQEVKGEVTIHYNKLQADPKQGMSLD

TIAM2, Q8IVF5 = biological target: T7, TIAM2, Q8IVF5
T7 sequence (Q8IVF5 885-986, limits assumed, looked up): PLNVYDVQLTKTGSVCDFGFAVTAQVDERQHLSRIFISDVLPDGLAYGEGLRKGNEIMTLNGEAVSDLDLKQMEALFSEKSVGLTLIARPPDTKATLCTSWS

MAGI1_1, Q96QZ7 = biological target: MAGI1_1, Q96QZ7
Chain of MAGI1_1, Q96QZ7 (Q96QZ7 1-106): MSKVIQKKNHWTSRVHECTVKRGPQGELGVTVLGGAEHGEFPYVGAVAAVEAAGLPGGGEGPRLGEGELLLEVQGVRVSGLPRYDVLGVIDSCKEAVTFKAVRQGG

LIN7A, O14910 = biological target: T8, LIN7A, O14910
T8 sequence (O14910 103-200, limits assumed, looked up): T6 sequence (Q9HAP6 88-185, limits assumed, looked up) with A2S, I20V, V35I, D42E, Q65H, Q77K, G78D, R89K

CASK, O14936 = biological target: CASK, O14936
Chain of CASK, O14936 (O14936 487-570): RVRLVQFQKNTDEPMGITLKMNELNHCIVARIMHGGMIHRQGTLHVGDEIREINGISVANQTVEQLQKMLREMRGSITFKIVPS

ARHGEF12, Q9NZN5-2 = biological target: ARHGEF12, Q9NZN5-2
Chain of ARHGEF12, Q9NZN5-2 (Q9NZN5 other isoform, or with tags, fused parts or gaps): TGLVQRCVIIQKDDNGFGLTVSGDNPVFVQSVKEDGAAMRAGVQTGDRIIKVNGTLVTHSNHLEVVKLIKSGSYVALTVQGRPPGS

NHERF4_2, Q86UT5 = biological target: NHERF4_2, Q86UT5
Chain of NHERF4_2, Q86UT5 (Q86UT5 220-308): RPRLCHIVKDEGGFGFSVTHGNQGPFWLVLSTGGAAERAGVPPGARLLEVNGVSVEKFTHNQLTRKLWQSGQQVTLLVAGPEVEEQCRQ

MAST2, Q6P0Q8 = biological target: MAST2, Q6P0Q8
Chain of MAST2, Q6P0Q8 (Q6P0Q8 1099-1202): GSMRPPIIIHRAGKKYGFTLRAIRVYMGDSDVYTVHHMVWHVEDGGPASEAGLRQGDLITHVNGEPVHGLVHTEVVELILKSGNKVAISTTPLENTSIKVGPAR

DLG5_1, Q8TDM6 = biological target: DLG5_1, Q8TDM6
Chain of DLG5_1, Q8TDM6 (Q8TDM6 617-713): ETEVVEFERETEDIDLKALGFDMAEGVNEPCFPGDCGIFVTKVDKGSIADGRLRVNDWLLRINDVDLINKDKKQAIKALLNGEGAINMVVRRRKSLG

TX1BP3, O14907 = biological target: T9, TX1BP3, O14907
T9 sequence (O14907 10-122, limits assumed, looked up): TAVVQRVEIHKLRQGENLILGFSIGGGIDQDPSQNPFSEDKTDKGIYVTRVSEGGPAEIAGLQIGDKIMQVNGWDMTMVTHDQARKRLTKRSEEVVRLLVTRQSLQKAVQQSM

RADIL, Q96JH8 = biological target: T10, RADIL, Q96JH8
T10 sequence (Q96JH8 971-1071, limits assumed, looked up): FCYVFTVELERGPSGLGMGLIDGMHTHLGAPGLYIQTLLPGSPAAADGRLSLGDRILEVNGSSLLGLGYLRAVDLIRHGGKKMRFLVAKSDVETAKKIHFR

DLG3_1, Q92796 = biological target: T11, DLG3_1, Q92796
T11 sequence (Q92796 125-227, limits assumed, looked up): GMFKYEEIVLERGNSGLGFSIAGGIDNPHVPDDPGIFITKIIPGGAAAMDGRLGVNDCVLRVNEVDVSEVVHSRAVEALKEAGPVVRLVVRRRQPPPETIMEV

PDZRN3_1, Q9UPQ7 = biological target: T12, PDZRN3_1, Q9UPQ7
T12 sequence (Q9UPQ7 244-349, limits assumed, looked up): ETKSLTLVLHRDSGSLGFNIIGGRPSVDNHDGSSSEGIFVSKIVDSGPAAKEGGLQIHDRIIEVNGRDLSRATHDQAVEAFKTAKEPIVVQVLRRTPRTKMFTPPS

Chain of TJP1_2, Q07157 (Q07157 181-274): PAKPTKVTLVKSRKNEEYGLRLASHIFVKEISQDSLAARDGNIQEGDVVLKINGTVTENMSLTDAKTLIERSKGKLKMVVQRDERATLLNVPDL

## RDPPAEWTRV [PTPN18, Q99952]
TJP1_2, Q07157
  pKd: below the threshold
SNTA1, Q13424
  pKd: 4.39
SNTG1, Q9NSN8
  pKd: below the threshold
DLG3_2, Q92796
  pKd: 4.2
FRMPD4, Q14CM0
  pKd: 4.07
APBA2_1, Q99767
  pKd: below the threshold
SNTG2, Q9NY99
  pKd: 4.19
GRID2IP_2, A4D2P6
  pKd: 4.57
GORASP2, Q9H8Y8
  pKd: 4.11
LIN7B, Q9HAP6
  pKd: below the threshold
Inadl_1, Q8NI35
  pKd: below the threshold
PICK1, Q9NRD5
  pKd: below the threshold
TIAM2, Q8IVF5
  pKd: below the threshold
MAGI1_1, Q96QZ7
  pKd: below the threshold
LIN7A, O14910
  pKd: 3.58
CASK, O14936
  pKd: below the threshold
ARHGEF12, Q9NZN5-2
  pKd: 3.88
NHERF4_2, Q86UT5
  pKd: below the threshold
MAST2, Q6P0Q8
  pKd: 5.62
DLG5_1, Q8TDM6
  pKd: below the threshold
TX1BP3, O14907
  pKd: 4.06
RADIL, Q96JH8
  pKd: 4
DLG3_1, Q92796
  pKd: 3.61
PDZRN3_1, Q9UPQ7
  pKd: 3.55

## GTGYDRKDYV [CLDN3, O15551]
TJP1_2, Q07157
  pKd: 3.6
SNTA1, Q13424
  pKd: below the threshold
SNTG1, Q9NSN8
  pKd: below the threshold
DLG3_2, Q92796
  pKd: below the threshold
FRMPD4, Q14CM0
  pKd: 3.56
APBA2_1, Q99767
  pKd: below the threshold
SNTG2, Q9NY99
  pKd: below the threshold
GRID2IP_2, A4D2P6
  pKd: 3.68
GORASP2, Q9H8Y8
  pKd: 3.57
LIN7B, Q9HAP6
  pKd: below the threshold
Inadl_1, Q8NI35
  pKd: below the threshold
PICK1, Q9NRD5
  pKd: below the threshold
TIAM2, Q8IVF5
  pKd: below the threshold
MAGI1_1, Q96QZ7
  pKd: below the threshold
LIN7A, O14910
  pKd: below the threshold
CASK, O14936
  pKd: below the threshold
ARHGEF12, Q9NZN5-2
  pKd: below the threshold
NHERF4_2, Q86UT5
  pKd: below the threshold
MAST2, Q6P0Q8
  pKd: below the threshold
DLG5_1, Q8TDM6
  pKd: 3.59
TX1BP3, O14907
  pKd: below the threshold
RADIL, Q96JH8
  pKd: 4.12
DLG3_1, Q92796
  pKd: below the threshold
PDZRN3_1, Q9UPQ7
  pKd: below the threshold

## DGVNEKVSCV [HTR2A, P28223]
TJP1_2, Q07157
  pKd: below the threshold
SNTA1, Q13424
  pKd: 4.66
SNTG1, Q9NSN8
  pKd: 4.33
DLG3_2, Q92796
  pKd: 4.82
FRMPD4, Q14CM0
  pKd: below the threshold
APBA2_1, Q99767
  pKd: below the threshold
SNTG2, Q9NY99
  pKd: 3.69
GRID2IP_2, A4D2P6
  pKd: 4.54
GORASP2, Q9H8Y8
  pKd: 3.74
LIN7B, Q9HAP6
  pKd: 3.79
Inadl_1, Q8NI35
  pKd: below the threshold
PICK1, Q9NRD5
  pKd: below the threshold
TIAM2, Q8IVF5
  pKd: 4.01
MAGI1_1, Q96QZ7
  pKd: below the threshold
LIN7A, O14910
  pKd: 3.51
CASK, O14936
  pKd: below the threshold
ARHGEF12, Q9NZN5-2
  pKd: 4.36
NHERF4_2, Q86UT5
  pKd: below the threshold
MAST2, Q6P0Q8
  pKd: 4.52
DLG5_1, Q8TDM6
  pKd: below the threshold
TX1BP3, O14907
  pKd: 3.61
RADIL, Q96JH8
  pKd: 4.53
DLG3_1, Q92796
  pKd: below the threshold
PDZRN3_1, Q9UPQ7
  pKd: below the threshold

Source: paper PMC9482650, “Quantitative fragmentomics allow affinity mapping of interactomes” (Nature Communications, 2022)
